Test results from patent publication US20190374506A1 (BETH ISREAL DEACONESS MEDICAL CENTER, published 2019).

Columns and labels:
[1] = target: T1, Flag-WWP1 ΔWW domain (deletion 341-547) (Homo sapiens (Human), UniProt Q9H0M0 1-922); test: immunoprecipitation and western blot, 293 cells (FIG. 4E)
T1 construct: The two kept ranges are counted on the 922-residue WWP1 entry; not shown: Flag tag
T1 sequence: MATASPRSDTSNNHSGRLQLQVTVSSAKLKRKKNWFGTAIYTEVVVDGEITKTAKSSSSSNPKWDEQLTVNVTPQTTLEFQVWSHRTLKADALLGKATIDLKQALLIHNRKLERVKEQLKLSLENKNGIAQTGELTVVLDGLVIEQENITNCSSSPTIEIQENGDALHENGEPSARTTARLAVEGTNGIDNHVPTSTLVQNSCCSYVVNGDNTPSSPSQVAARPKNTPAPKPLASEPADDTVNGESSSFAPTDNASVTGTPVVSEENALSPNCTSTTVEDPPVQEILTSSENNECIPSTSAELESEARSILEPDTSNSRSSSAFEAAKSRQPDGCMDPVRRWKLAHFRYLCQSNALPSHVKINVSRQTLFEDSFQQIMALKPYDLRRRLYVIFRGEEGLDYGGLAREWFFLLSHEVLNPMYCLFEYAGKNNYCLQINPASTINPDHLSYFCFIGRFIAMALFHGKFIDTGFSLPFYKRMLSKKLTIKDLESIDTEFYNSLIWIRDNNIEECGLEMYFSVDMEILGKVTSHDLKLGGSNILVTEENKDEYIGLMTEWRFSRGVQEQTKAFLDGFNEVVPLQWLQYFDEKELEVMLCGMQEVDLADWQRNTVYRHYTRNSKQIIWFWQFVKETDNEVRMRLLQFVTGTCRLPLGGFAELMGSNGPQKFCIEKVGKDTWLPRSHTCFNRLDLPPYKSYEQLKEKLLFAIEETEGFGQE
Description: Lysates of 293 cells transfected with indicated constructs were analysed by immunoprecipitation and/or western blot with indicated antibodies.
Western Blotting and Immunoprecipitation. For western blotting, cells were lysed in RIPA buffer (Boston BioProducts) supplemented with protease (Roche) and phosphatase (Roche) inhibitor. Proteins were separated on NuPAGE 4-12% Bis-Tris gradient gels (Invitrogen), transferred to polyvinylidine difluoride membranes (Immobilon P, Millipore) and the blots were probed with the indicated antibodies. For immunoprecipitation, PC3, 293T and MEF cells were transfected with the indicated expression vectors by using LIPOFECTAMIN 2000 (Life Technologies). 24 hours after transfection, cells were lysed in RIPA buffer with protease (Roche) and phosphatase (Roche) inhibitor. 500 μg of total lysates were pre-cleared for 30 minutes at 4° C., and then immunoprecipitated with anti-Myc (Cell Signaling Technology 9B11, 1:500), or anti-PTEN (Cell Signaling Technology 9559, 1:500) antibody overnight at 4° C. The Protein-A or Protein-G sepharose beads (GE Healthcare) were then added and incubated for another 2 hours. The immunoprecipitates were washed with RIPA buffer three times. […]

[2] = target: T2, WW domain containing E3 ubiquitin protein ligase 1 (WWP1) (human, UniProt Q9H0M0 1-922, limits assumed); test: anti-PTEN immunoprecipitation from DU145 cells, western blot (FIG. 2B)
T2 construct: also called endogenous WWP1; WW domain-containing protein-1

B1: Phosphatase And Tensin Homolog Deleted On Chromosome Ten (PTEN) (enzyme)
chain: not shown
notes: also called endogenous PTEN; PTEN WT
binding result [1]: no binding | binding result [2]: binds
